From patent US9074002B2, “PTP1B inhibitors” (Cold Spring Harbor Laboratory, priority 2009, dated 2015)

Test system: endogenous PTP1B in Cos1 cells
Test: Colocalization of intrabody45 and PTP1B in Cos1 cells by immunofluorescence
Assay type: cell-based
Conditions: FIG. 14
Method: In order to verify the interaction between PTP1B-OX and scFv45 in mammalian cells, Applicant determined whether PTP and scFv45 colocalized after insulin stimulation, using immunofluorescence. Cos1 cells were grown on cover slips and transfected with scFv45 using Fugene6 as the transfection reagent according to manufacturer's instructions. The cells were serum starved 24 hours post transfection, for 16 hours at 37° C. and then stimulated with 25 nM insulin (in growth medium without serum) or left untreated. Following insulin treatment the cells were washed 2× with PBS and fixed with 5% formalin (in PBS) for 15 minutes at room temperature. The cells were washed with PBS three times at room temperature. The fixed cells were permeabilized with 0.5% Triton-X100 (in PBS) for 5 minutes at room temperature. Cells were rinsed with Wash Buffer [PBS, pH 7.4 with 0.1% BSA, 0.2% TritonX-100, 0.05% Tween-20 and 0.05% sodium azide] at room temperature. […] To quantify colocalization of PTP1B and intrabody45 from the merged images, 15 individual images were analyzed by Zeiss (LSM 710) Colocalization Viewer Software. The degree of colocalization of PTP1B and intrabody45 in each cell was expressed as colocalization coefficients that measure relative number of colocalizing pixels for the respective fluorophores for PTP1B and intrabody45, as compared to the total number of pixels. […]

B1: scFv45: conformation-sensor scFv binding PTP1B-OX, SEQ ID NO: 26 and 78; expressed as intrabody (protein)
scFv: MKKTAIAIAVALAGFATVAQAALTQPSSVSANPGGTVKITCSGSSSAYGYGWYQQKSPGSAPVTVIYNNNKRPSNIPSRFSGSKSGSTGTLTITGVQAEDEAVYFCGSEDSSTDAIFGAGTTLTVLGQSSRSSTVTLDESGGGLQAPGGALSLVCKASGFTFSSYDMGWIRQAPGKGLEYVAGITDNGRYASYGSAVDGRATISRDNGQSSVRLQLNNLRAEDTGTYYCARDDGSGWTGNSIDAWGHGTEVIVSSTSGQAGQHHHHHHGAYPYDVPDYAS
- colocalization between PTP1B and intrabody (Cos1 cells without insulin stimulation): not significant
- colocalization between PTP1B and intrabody (Cos1 cells, stimulated with 25 nM insulin): Strong colocalization
